Source: US20240132578A1

Columns and labels:
Test in all cases: cell-based or functional assay
[1] = target: HIV-1 Env of isolate MGRM-AE-001 (pseudovirus) (HIV-1)
[2] = target: HIV-1 Env of isolate MGRM-C-024 (subtype C), on pseudovirus (HIV-1)
[3] = target: HIV-1 Env of isolate MGRM-G-006 (subtype G) (HIV-1)
[4] = target: HIV-1 Env of isolate MGRM-D-004 (HIV-1)
[5] = target: HIV-1 Env of isolate MG RM-A-014 (pseudovirus) (HIV-1)
[6] = target: HIV-1 Env of isolate MGRM-F1-023 (HIV-1)
[7] = target: HIV-1 Env of isolate MGRM-D-005 (pseudovirus) (HIV-1)
[8] = target: HIV-1 Env of isolate MGRM-Chronic-B-002 (HIV-1)
[9] = target: HIV-1 Env of isolate JRFL (HIV-1)
[10] = target: HIV-1 Env of isolate MGRM-D-029 (HIV-1)
[11] = target: HIV-1 Env of isolate MGRM-Chronic-B-001 (HIV-1)
[12] = target: HIV-1 Env of pseudovirus isolate MGRM-C-009 (clade C) (HIV-1)
[13] = target: HIV-1 Env of isolate MGRM-F1-010 (HIV-1)
[14] = target: HIV-1 Env of isolate MGRM-AE-002 (subtype AE) (HIV-1)
[15] = target: HIV-1 Env of isolate MGRM-F1-022 (HIV-1)
[16] = target: HIV-1 Env of isolate MGRM-D-003 (pseudovirus) (HIV-1)
[17] = target: HIV-1 Env of isolate 98CN006 (pseudovirus) (HIV-1)
[18] = target: HIV-1 JR-CSF Env R419A (HIV-1 (isolate JR-CSF)) (UniProt P20871)
[19] = target: HIV-1 Env of isolate MGRM-Chronic-B-003 (HIV-1)
[20] = target: aMLV envelope protein on pseudovirus (negative control)
[21] = target: HIV-1 CMU02 envelope protein (Env) on pseudovirus (HIV-1)

Chain of 4980_N08 (PGT-143) (antibody) (VH): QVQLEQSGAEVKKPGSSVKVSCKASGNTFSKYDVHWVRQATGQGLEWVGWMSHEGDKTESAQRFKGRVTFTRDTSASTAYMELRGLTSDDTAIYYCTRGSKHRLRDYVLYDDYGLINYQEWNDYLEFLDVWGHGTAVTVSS
Chain of 4980_N08 (PGT-143) (antibody) (VL): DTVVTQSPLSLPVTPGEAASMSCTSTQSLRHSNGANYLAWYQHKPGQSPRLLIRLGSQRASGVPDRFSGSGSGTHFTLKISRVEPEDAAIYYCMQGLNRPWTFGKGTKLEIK
Chain of 5345_I01 (PGT-137) (antibody) (VH): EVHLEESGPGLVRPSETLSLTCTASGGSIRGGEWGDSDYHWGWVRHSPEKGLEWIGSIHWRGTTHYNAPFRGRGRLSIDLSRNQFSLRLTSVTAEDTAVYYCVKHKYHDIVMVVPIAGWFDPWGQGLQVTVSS
Chain of 5345_I01 (PGT-137) (antibody) (VL): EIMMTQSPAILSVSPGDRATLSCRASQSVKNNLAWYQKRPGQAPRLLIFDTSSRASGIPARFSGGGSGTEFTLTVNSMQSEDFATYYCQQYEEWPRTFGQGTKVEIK
Chain of 4970_K22 (PGT-144) (antibody) (VH): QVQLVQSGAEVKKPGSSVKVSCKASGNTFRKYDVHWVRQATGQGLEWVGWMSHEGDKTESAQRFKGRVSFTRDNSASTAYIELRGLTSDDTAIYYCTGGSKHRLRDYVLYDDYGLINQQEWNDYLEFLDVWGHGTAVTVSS
Chain of 4970_K22 (PGT-144) (antibody) (VL): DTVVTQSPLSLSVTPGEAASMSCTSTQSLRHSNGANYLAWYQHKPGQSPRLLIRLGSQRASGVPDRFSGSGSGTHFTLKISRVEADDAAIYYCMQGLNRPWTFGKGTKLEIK
Chain of 4995_P16 (PGT-145) (antibody) (VH): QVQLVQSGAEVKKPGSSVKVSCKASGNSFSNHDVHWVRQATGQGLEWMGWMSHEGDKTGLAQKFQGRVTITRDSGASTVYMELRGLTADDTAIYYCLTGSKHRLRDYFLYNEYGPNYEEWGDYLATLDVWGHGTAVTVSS
Chain of 4995_P16 (PGT-145) (antibody) (VL): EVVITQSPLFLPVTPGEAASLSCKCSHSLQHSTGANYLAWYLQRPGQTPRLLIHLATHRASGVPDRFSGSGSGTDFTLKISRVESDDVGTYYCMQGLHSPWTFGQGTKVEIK
Chain of 5329_C19 (PGT-136) (antibody) (VH): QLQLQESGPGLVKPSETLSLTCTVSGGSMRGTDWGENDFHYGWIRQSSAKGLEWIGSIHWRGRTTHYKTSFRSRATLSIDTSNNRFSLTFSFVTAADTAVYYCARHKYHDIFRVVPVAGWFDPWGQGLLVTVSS
Chain of 5329_C19 (PGT-136) (antibody) (VL): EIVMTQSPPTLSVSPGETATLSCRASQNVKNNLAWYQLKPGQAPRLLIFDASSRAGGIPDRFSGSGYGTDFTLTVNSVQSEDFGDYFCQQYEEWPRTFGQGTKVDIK
Chain of 4995_E20 (PGT-142) (antibody) (VH): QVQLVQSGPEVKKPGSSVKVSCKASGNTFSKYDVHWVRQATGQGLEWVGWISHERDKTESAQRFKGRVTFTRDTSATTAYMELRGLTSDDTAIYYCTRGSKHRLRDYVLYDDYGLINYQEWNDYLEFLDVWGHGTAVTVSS
Chain of 4995_E20 (PGT-142) (antibody) (VL): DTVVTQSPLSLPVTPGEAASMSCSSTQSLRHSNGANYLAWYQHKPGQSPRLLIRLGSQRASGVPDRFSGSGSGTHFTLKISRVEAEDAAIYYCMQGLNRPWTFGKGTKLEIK
Chain of 4993_K13 (PGT-141) (antibody) (VH): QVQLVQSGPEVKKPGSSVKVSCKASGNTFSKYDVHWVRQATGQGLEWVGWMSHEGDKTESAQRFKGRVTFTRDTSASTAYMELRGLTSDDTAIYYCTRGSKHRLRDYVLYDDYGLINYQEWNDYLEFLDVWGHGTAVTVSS

| Substance | IC50 (µg/mL), single-round pseudovirus neutralization [1] [µg/mL] | IC50, single-round pseudovirus neutralization [2] [µg/mL] | IC50 (µg/mL), pseudovirus neutralization [3] [µg/mL] | IC50 (µg/mL), pseudovirus neutralization [4] [µg/mL] | IC50 (µg/mL), single-round pseudovirus neutralization [5] [µg/mL] | IC50 (µg/mL), pseudovirus neutralization [6] [µg/mL] | IC50 (µg/mL), pseudovirus neutralization [7] [µg/mL] | IC50 (µg/mL), pseudovirus neutralization [8] [µg/mL] | IC50 (µg/mL), pseudovirus neutralization [9] [µg/mL] | IC50 (µg/mL), pseudovirus neutralization [10] [µg/mL] | IC50 (µg/mL), pseudovirus neutralization [11] [µg/mL] | IC50, pseudovirus neutralization [12] [µg/mL] | IC50 (µg/mL), pseudovirus neutralization [13] [µg/mL] | IC50, pseudovirus neutralization [14] [µg/mL] | IC50 (µg/mL), pseudovirus neutralization [15] [µg/mL] | IC50 (µg/mL), pseudovirus neutralization [16] [µg/mL] | IC50 (µg/mL), pseudovirus neutralization [17] [µg/mL] | Fold IC50 increase relative to wild-type (pseudovirus neutralization) [18] [fold] | IC50 (µg/mL), pseudovirus neutralization [19] [µg/mL] | further results |
| --- | --- | --- | --- | --- | --- | --- | --- | --- | --- | --- | --- | --- | --- | --- | --- | --- | --- | --- | --- | --- |
| 4970_K22 (PGT-144) (antibody) | > 50 | 2.06 | 3.84 | > 50 | > 50 |  |  |  |  |  |  |  |  |  |  |  |  |  |  |  |
| 4980_N08 (PGT-143) (antibody) | > 50 | 0.05 | 0.031 | > 50 | 1.07 |  |  |  |  |  |  |  |  |  |  |  |  |  |  |  |
| 4993_K13 (PGT-141) (antibody) | > 50 | 0.101 | 0.043 | > 50 | 0.628 |  |  |  |  |  |  |  |  |  |  |  |  |  |  |  |
| 4995_E20 (PGT-142) (antibody) | > 50 | 0.03 | 0.019 | > 50 | 0.367 |  |  |  |  |  |  |  |  |  |  |  |  |  |  |  |
| 4995_P16 (PGT-145) (antibody) | 20.9 | 0.174 | 0.286 | 10.9 | 1.36 |  |  |  |  |  |  |  |  |  |  |  |  |  |  |  |
| 5114_A19 (PGT-128) (antibody) |  |  |  |  |  | 0.007 | 0.051 | 0.036 | 0.007 | > 50 | > 50 | > 50 | 16.7 | 0.522 | 4.54 | 0.019 | 0.015 | 0.5 | 0.007 |  |
| 5136_H01 (PGT-131) (antibody) |  |  |  |  |  | > 50 | > 50 | > 50 | 0.454 | > 50 | > 50 | > 50 | > 50 | > 50 | > 50 | 19.6 | 35.3 | 1.7 | > 50 |  |
| 5147_N06 (PGT-130) (antibody) |  |  |  |  |  | 0.05 | > 50 | > 50 | 0.046 | > 50 | > 50 | > 50 | > 50 | 1.53 | > 50 | 0.651 | 0.258 | 2.6 | > 50 | IC50 (ug/mL), pseudovirus neutralization [20]: > 10 µg/mL; IC50 (ug/mL), pseudovirus neutralization [21]: > 10 µg/mL |
| 5329_C19 (PGT-136) (antibody) |  |  |  |  |  | > 50 | > 50 | > 50 | > 50 | > 50 | > 50 | > 50 | > 50 | > 50 | 2.42 | > 50 | 0.406 |  | > 50 | IC50 (ug/mL), pseudovirus neutralization [20]: > 10 µg/mL; IC50 (ug/mL), pseudovirus neutralization [21]: > 10 µg/mL |
| 5343_B08 (PGT-135) (antibody) |  |  |  |  |  | 0.088 | > 50 | > 50 | > 50 | 30.8 | > 50 | > 50 | > 50 | > 50 | 0.964 | > 50 | 0.429 | 3.9 | > 50 | IC50 (ug/mL), pseudovirus neutralization [20]: > 10 µg/mL; IC50 (ug/mL), pseudovirus neutralization [21]: > 10 µg/mL |
| 5345_I01 (PGT-137) (antibody) |  |  |  |  |  | > 50 | > 50 | > 50 | > 50 | > 50 | > 50 | > 50 | > 50 | > 50 | 6.23 | > 50 | 1.22 |  | > 50 |  |
| VRC01 (antibody) | 0.167 | 3.4 | 0.055 | 1.25 | 0.135 |  |  |  |  |  |  |  |  |  |  |  |  |  |  |  |
